Measured values reported in patent publication US20250197482A1.

How the values were obtained:
[1] = biological target: CAP256 wk34c80 (HIV-1)
[2] = biological target: HIV-1 Env of strain WITO.33 (Env-pseudotyped virus) (HIV-1)
[3] = biological target: CAP256 soluble Env trimer (clade C), stabilized in the prefusion-closed conformation (HIV-1); assay: ELISA, lectin-captured trimer, expression supernatant, single point, OD 450 nm
[4] = biological target: JRFL soluble Env trimer (clade B), stabilized in the prefusion-closed conformation (HIV-1); assay: as above
[5] = biological target: K169V variant of CAP256 soluble Env trimer (HIV-1); assay: as above
[6] = biological target: 426C-WITO soluble Env trimer (clade B), stabilized in the prefusion-closed conformation (HIV-1); assay: ELISA, lectin-captured trimer, expression supernatant, single point, OD 450 nm, column 426c-WITO-degly3

VRC01 (antibody) gave a % neutralization, single point, Env-pseudotyped virus on TZM-bl [1] of 100%, a % neutralization, single point, Env-pseudotyped virus on TZM-bl [2] of 0% and an ELISA binding [3] of 2.31. It also gave an ELISA binding [4] of 2.29, an ELISA binding [5] of 2.65 and an ELISA binding [6] of 2.53.
